Results on 2 molecules are retold here after patent EP2225268B1.

Test [1] addresses Native NGAL purchased from Diagnostics Development (Uppsala, Sweden), non-reduced (UniProt P80188). Description: … sandwich CMIA, capture HYB 211-01, detection acridinium-HYB 211-02; NGAL 250 ng/mL.
In test [2] the target is Wild-type recombinant human NGAL dimer calibrators treated with DTT (human) (UniProt P80188). The test is described as above.
Test [3] concerns the target Wild-type recombinant human NGAL dimer expressed in CHO cells (human) (UniProt P80188). Described as above.
In test [4] the target is Wild-type recombinant human NGAL monomer expressed in CHO cells (human) (UniProt P80188). The description is as above.
Test [5] has as its target Wild-type recombinant human NGAL dimer calibrators treated with DTT (human) (UniProt P80188). Description: … sandwich CMIA, capture HYB 211-01, detection acridinium-HYB 211-02; DTT-treated against untreated dimer calibrator; target 600 ng/mL.
Test [6] shares this target. Put plainly: … sandwich CMIA, capture HYB 211-01, detection acridinium-HYB 211-02; DTT-treated against untreated dimer calibrator; target 1000 ng/mL.
For test [7] the target is unchanged. Put plainly: … sandwich CMIA, capture HYB 211-01, detection acridinium-HYB 211-02; DTT-treated dimer calibrators against untreated dimer calibrators.
Test [8] deals with Wild-type recombinant human NGAL dimer expressed in CHO cells (human) (UniProt P80188). Description: … sandwich CMIA, capture 1-2322-455, detection acridinium-1-903-430; NGAL 5 ng/mL.
Test [9] deals with Wild-type recombinant human NGAL monomer expressed in CHO cells (human) (UniProt P80188). The description is as above.
Test [10] concerns the target Wild-type recombinant human NGAL dimer expressed in CHO cells (human) (UniProt P80188). Put plainly: … sandwich CMIA, capture 1-2322-455, detection acridinium-1-903-430; NGAL 50 ng/mL.
For test [11], the target named is Wild-type recombinant human NGAL monomer expressed in CHO cells (human) (UniProt P80188). The description is as above.
Test [12] deals with Wild-type recombinant human NGAL dimer expressed in CHO cells (human) (UniProt P80188). Put plainly: … sandwich CMIA, capture 1-2322-455, detection acridinium-1-903-430; NGAL 250 ng/mL.
In test [13] the target is Wild-type recombinant human NGAL monomer expressed in CHO cells (human) (UniProt P80188). The description is as above.
Test [14] deals with Wild-type recombinant human NGAL dimer expressed in CHO cells (human) (UniProt P80188). Put plainly: … sandwich CMIA, capture 1-2322-455, detection acridinium-1-903-430; NGAL 600 ng/mL.
Test [15] concerns the target Wild-type recombinant human NGAL monomer expressed in CHO cells (human) (UniProt P80188). The test is described as above.
Test [16] addresses Wild-type recombinant human NGAL dimer expressed in CHO cells (human) (UniProt P80188). Description: … sandwich CMIA, capture 1-2322-455, detection acridinium-1-903-430; NGAL 1000 ng/mL.
The target in test [17] is Wild-type recombinant human NGAL monomer expressed in CHO cells (human) (UniProt P80188). The description is as above.
Test [18] concerns the target Wild-type recombinant human NGAL dimer calibrators with TCEP in the reaction mixture (human) (UniProt P80188). Description: … sandwich CMIA, capture 1-2322-455, detection acridinium-1-903-430; TCEP in reaction; NGAL 50 ng/mL.
Test [19] concerns the target Wild-type recombinant human NGAL monomer expressed in CHO cells (human) (UniProt P80188). Description: … sandwich CMIA, capture 1-2322-455, detection acridinium-1-903-430; monomer calibrator plus TCEP; NGAL 5 ng/mL.
The target in test [20] is Wild-type recombinant human NGAL dimer expressed in CHO cells (human) (UniProt P80188). Put plainly: … sandwich CMIA, capture 1-2322-455, detection acridinium-1-903-430; curve fit with monomer calibrators; target 600 ng/mL.
The target of test [21] is Wild-type recombinant human NGAL monomer expressed in CHO cells (human) (UniProt P80188). Described as above.
The target is the same in test [22]. Put plainly: … sandwich CMIA, capture 1-2322-455, detection acridinium-1-903-430; monomer calibrator plus TCEP; curve fit with monomer calibrators; target 5 ng/mL.
Test [23] has the same target. Description: … sandwich CMIA, capture 1-2322-455, detection acridinium-1-903-430; monomer calibrator plus TCEP; curve fit with monomer calibrators; target 600 ng/mL.

Take “anti-NGAL antibody HYB 211-01 from AntibodyShop A/S, Gentofte, Denmark”: the RLUs in [1] is 620000 RLUs; in [2], 378000 RLUs; in [3], 142000 RLUs; in test [4], 396000 RLUs. Moreover, the % Increase due to DTT is 256% in test [5] and 277% in [6]. The average % increase of NGAL concentration after reduction of dimers in [7] was found to be 248%.

B1: antibody produced by murine hybridoma cell line 1-2322-455 having ATCC Accession No. PTA-8024 (antibody, V domains shown)
VH: EVQLVESGGGLVQPGGSLKLSCAASGFTFNNYYMSWVRQTPERRLEWVAYISSSGGSTYYSDSVRGRFTISRDTARNTLYLQMTSLKSEDTAMYYCARHFGDYSYFDYWGQGTTLTVSS
VL: DIQMTQSPASLSASVGETVTITCRASENFYSYLAWYQQKQGKSPQLLVYNAKTLAEGVPSRFSGSGSGTQFSLKINSLQPEDFGTYYCQHHYDIPLTFGAGTKLELKR
On to B1, for which the RLUs in test [8] turned out to be 9120 RLUs; in [9], 29300 RLUs; in [10] it was 76800 RLUs; in [11] it was 240000 RLUs; in test [12], 336000 RLUs; in [13], 900000 RLUs. Also, the RLUs in test [14] was found to be 680000 RLUs; in test [15], 1.51e+06 RLUs; in test [16], 993000 RLUs; in [17], 1.93e+06 RLUs; in test [18] it was 132000 RLUs; in test [19], 29300 RLUs. The Curve Fit Results in test [20] came out at 173 ng/mL; in test [21] it was 591 ng/mL; in [22] it was 4.6 ng/mL; in test [23] it was 608 ng/mL.
